Columns and labels:
[1] = molecular target: GG (GST - ICS linker - GFP model substrate for ICE) [GST: P08515]
[2] = molecular target: GM (GST - ICE-site linker - MBP model substrate for ICE) [GST: P08515]
[3] = molecular target: T1, ICS (14 mer epitope that is part of human pro-IL-1beta) (human); assay: method not stated; 'measured in a different context' from the protease experiment
T1 chain: NEAYVHDGPVRSLN

[4] = molecular target: GG (GST - ICS linker - GFP model substrate for ICE) (human) [GST: P08515]
[5] = molecular target: GG (GST - ICS linker - GFP model substrate for ICE) (human) [GST: P08515]; assay: cell-based or functional assay

Chain of GM (GST - ICE-site linker - MBP model substrate for ICE) [GST: P08515] (P08515 whole entry, looked up): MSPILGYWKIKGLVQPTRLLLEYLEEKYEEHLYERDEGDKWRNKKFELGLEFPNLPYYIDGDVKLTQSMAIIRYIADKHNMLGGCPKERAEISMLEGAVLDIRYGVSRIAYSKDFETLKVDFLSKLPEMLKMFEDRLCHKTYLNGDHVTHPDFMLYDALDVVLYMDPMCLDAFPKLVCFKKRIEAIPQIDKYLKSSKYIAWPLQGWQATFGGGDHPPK
Chain of GG (GST - ICS linker - GFP model substrate for ICE) [GST: P08515] (P08515 whole entry, looked up): as above

B1: interleukin converting enzyme (ICE) (protein)
chain: NPAMPTSSGSEGNVKLCSLEEAQRIWKQKSAEIYPIMDKSSRTRLALIICNEEFDSIPRRTGAEVDITGMTMLLQNLGYSVDVKKNLTASDMTTELEAFAHRPEHKTSDSTFLVFMSHGIREGICGKKHSEQVPDILQLNAIFNMLNTKNCPSLKDKPKVIIIQACRGDSPGVVWFKDSVGVSGNLSLPTTEEFEDDAIKKAHIEKDFIAFCSSTPDNVSWRHPTMGSVFIGRLIEHMQEYACSCDVEEIFRKVRFSFEQPDGRAQMPTTERVTLTRCFYLFPGH
cleavage of substrate by purified ICE [1]: Purified ICE cuts both the GG and GM substrates efficiently under these conditions | cleavage of substrate by purified ICE [2]: Purified ICE cuts both the GG and GM substrates efficiently under these conditions

KARKEAELAAATAEQ (modifications not checked) [LEPB]
Kd [3]: 2 µM

KARKEAELAAATAEQ (peptide, from a related filing) [synthetic LEPB]
IC50 (read off the curve), inhibition of ICE cleavage of GG [4]: 80 µM | IC50 of inhibition of the cleavage of GG by ICE [5]: 50 to 100 µM

— patent US7018801
